Test results as given in PMC9602544.

Biological target: human plasma fibronectin (human)
Assay: ELISA; whole-cell ELISA; 1 ug human plasma Fn coated on Maxisorp wells, blocked with 2% BSA; ca. 2.5 x 10^7 washed bacteria added for 2 h at 37°C; attached bacteria detected with anti-B. henselae IgG, absorbance at 450 nm; triplicate

Chain of human plasma fibronectin (human) (P02751 32-2477): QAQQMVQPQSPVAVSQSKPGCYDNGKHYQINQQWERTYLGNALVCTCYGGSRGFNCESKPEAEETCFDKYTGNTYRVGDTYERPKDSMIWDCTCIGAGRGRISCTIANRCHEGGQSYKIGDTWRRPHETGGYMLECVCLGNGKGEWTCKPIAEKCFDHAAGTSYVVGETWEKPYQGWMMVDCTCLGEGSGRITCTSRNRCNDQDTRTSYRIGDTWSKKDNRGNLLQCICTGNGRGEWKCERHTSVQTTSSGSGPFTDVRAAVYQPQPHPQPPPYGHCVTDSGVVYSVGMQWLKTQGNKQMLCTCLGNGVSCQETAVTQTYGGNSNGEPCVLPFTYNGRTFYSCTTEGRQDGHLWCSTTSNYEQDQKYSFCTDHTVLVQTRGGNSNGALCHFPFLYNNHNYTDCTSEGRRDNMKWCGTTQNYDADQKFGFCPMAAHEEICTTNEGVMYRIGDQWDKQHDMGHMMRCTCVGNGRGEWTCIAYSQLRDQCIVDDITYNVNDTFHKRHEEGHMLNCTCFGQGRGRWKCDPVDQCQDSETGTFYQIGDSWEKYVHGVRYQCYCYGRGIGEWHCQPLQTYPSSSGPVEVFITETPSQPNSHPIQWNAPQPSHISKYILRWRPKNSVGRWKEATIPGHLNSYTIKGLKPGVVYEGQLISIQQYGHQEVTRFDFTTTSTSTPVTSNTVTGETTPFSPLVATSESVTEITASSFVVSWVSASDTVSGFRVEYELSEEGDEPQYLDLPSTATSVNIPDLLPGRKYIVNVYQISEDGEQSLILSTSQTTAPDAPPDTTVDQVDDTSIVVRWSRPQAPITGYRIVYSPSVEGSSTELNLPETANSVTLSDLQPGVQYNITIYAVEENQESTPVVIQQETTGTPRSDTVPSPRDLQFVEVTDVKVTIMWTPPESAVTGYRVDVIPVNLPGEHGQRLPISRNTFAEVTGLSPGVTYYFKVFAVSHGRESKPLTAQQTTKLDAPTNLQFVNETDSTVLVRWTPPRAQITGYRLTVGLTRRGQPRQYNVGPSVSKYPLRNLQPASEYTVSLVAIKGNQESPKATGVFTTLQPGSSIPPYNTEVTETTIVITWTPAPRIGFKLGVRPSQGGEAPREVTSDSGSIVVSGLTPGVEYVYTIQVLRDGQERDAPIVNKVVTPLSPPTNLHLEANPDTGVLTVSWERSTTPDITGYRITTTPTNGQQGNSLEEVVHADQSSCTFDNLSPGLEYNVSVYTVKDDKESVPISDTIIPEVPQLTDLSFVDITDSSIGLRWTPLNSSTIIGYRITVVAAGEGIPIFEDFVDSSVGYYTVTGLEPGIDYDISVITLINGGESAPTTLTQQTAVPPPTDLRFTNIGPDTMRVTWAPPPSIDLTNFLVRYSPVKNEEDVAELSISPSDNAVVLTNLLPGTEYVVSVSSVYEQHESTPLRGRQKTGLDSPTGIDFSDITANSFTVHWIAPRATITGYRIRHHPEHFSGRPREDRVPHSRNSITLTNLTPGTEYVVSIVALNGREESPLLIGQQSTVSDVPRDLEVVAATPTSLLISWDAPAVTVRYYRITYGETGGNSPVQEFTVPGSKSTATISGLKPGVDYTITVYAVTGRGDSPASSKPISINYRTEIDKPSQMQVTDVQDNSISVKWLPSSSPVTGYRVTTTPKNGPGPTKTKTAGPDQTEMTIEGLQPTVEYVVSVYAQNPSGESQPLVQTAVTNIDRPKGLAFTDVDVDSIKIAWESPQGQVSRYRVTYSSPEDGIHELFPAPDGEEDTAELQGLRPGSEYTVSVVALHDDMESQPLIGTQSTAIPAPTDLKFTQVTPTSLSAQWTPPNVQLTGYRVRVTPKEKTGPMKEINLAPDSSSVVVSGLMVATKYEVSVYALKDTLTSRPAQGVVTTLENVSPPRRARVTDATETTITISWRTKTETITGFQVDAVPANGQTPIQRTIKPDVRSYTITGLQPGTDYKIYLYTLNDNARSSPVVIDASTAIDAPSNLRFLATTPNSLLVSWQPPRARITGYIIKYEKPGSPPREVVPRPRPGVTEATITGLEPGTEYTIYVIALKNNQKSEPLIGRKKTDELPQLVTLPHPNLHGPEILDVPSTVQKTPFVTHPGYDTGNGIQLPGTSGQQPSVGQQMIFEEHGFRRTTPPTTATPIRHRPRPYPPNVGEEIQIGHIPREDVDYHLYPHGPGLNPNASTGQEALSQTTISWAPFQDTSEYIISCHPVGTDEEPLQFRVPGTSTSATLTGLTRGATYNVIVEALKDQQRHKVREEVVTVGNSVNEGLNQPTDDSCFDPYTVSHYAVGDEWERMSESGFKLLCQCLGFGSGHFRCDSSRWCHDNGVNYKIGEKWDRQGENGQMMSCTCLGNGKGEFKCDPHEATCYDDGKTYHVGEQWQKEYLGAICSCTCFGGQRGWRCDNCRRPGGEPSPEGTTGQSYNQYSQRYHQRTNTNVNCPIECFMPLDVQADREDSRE

Bartonella adhesin A (BadA) of B. henselae Marseille, wild type (from UniProt Q5MWV9 48-3082) (natural protein)
absorbance at 450 nm, whole-cell ELISA: 0.908
